Tests used:
HLA-B*08:01 = experiment: IEDB peptide-MHC binding, purified MHC/competitive/radioactivity; filed as Kd, often an IC50 or EC50 that approximates it; ≥ and ≤ were set here for values at or beyond the usual limits of such assays
HLA-A*30:01 = experiment: as above
HLA-A*32:01 = experiment: as above
HLA-B*15:03 = experiment: as above
HLA-B*15:01 = experiment: as above
HLA-B*35:01 = experiment: as above
HLA-B*54:01 = experiment: as above
HLA-B*07:02 = experiment: as above
HLA-B*51:01 = experiment: as above
HLA-B*53:01 = experiment: as above
HLA-B*44:03 = experiment: as above; details: source organism: Mammarenavirus lassaense
HLA-B*40:01 = experiment: IEDB peptide-MHC binding, purified MHC/direct/fluorescence; filed as Kd, often an IC50 or EC50 that approximates it; ≥ and ≤ were set here for values at or beyond the usual limits of such assays; details: source organism: Entamoeba histolytica HM-1:IMSS
HLA-B*18:01 = experiment: as above; details: source organism: Entamoeba histolytica HM-1:IMSS
HLA-A*30:02 = experiment: IEDB peptide-MHC binding, purified MHC/competitive/radioactivity; filed as Kd, often an IC50 or EC50 that approximates it; ≥ and ≤ were set here for values at or beyond the usual limits of such assays; details: source organism: Vaccinia virus WR
HLA-A*24:02 = experiment: as above; details: source organism: Vaccinia virus WR
HLA-A*02:02 = experiment: as above; details: source organism: Vaccinia virus WR
HLA-A*02:06 = experiment: as above; details: source organism: Vaccinia virus WR
HLA-A*26:01 = experiment: as above; details: source organism: Vaccinia virus WR
HLA-A*68:02 = experiment: as above; details: source organism: Vaccinia virus WR
HLA-A*29:02 = experiment: as above; details: source organism: Vaccinia virus WR
HLA-A*02:03 = experiment: as above; details: source organism: Vaccinia virus WR
HLA-A*23:01 = experiment: as above; details: source organism: Vaccinia virus WR
HLA-A*01:01 = experiment: as above; details: source organism: Vaccinia virus WR
[1] = source organism: Vaccinia virus WR
[2] = source organism: SARS coronavirus Tor2
[3] = source organism: Mammarenavirus lassaense
[4] = source organism: Vaccinia virus Copenhagen

Question: Which results are given for FPKNDFVSF?
Answer: Kd (HLA-B*08:01; [1]): 15.5 nM; Kd (HLA-A*30:01; [1]): 9120 nM; Kd (HLA-A*32:01; [1]): ≥ 53700 nM; Kd (HLA-B*15:03; [1]): 4.22 nM; Kd (HLA-B*15:01; [1]): 10.4 nM

Question: What does the source list for MMSMYGKAF?
Answer: Kd (HLA-B*15:03; [1]): 2.61 nM; Kd (HLA-B*15:01; [1]): 3.18 nM

Question: For YPEYNRAVKF, which Kd (HLA-B*35:01; [1]) is on record?
Answer: 808 nM

Question: And the Kd (HLA-B*54:01; [1])?
Answer: 473 nM

Question: What about the Kd (HLA-B*07:02; [1]) of the same sequence?
Answer: 122 nM

Question: And the Kd (HLA-B*51:01; [1])?
Answer: 857 nM

Question: What about the Kd (HLA-B*53:01; [1]) of the same sequence?
Answer: 41.7 nM

Question: Which results are given for WPVTLACFVL?
Answer: Kd (HLA-B*35:01; [2]): 71.5 nM; Kd (HLA-B*54:01; [2]): 3560 nM; Kd (HLA-B*07:02; [2]): 956 nM; Kd (HLA-B*51:01; [2]): 9.11 nM; Kd (HLA-B*53:01; [2]): 73.8 nM

Question: How did the Kd (HLA-B*35:01; [2]) turn out when KPVDTSNSF was run?
Answer: 266 nM

Question: What about the Kd (HLA-B*54:01; [2]) of the same sequence?
Answer: 5770 nM

Question: What about the Kd (HLA-B*07:02; [2]) of the same sequence?
Answer: 20.7 nM

Question: What about the Kd (HLA-B*51:01; [2]) of the same sequence?
Answer: 898 nM

Question: And the Kd (HLA-B*53:01; [2])?
Answer: 151 nM

Question: With KPRSQMETDF as the sequence, how does the Kd (HLA-B*35:01; [2]) read?
Answer: 19500 nM

Question: And the Kd (HLA-B*54:01; [2])?
Answer: ≥ 49300 nM

Question: What about the Kd (HLA-B*07:02; [2]) of the same sequence?
Answer: 78.8 nM

Question: And the Kd (HLA-B*51:01; [2])?
Answer: 2500 nM

Question: And the Kd (HLA-B*53:01; [2])?
Answer: ≥ 53700 nM

Question: Which results are given for CPNSYDSIM?
Answer: Kd (HLA-B*44:03): 7570 nM; Kd (HLA-B*35:01; [3]): 8.12 nM; Kd (HLA-B*54:01; [3]): 1590 nM; Kd (HLA-B*07:02; [3]): 142 nM; Kd (HLA-B*51:01; [3]): 2270 nM; Kd (HLA-B*53:01; [3]): 41.9 nM

Question: How did the Kd (HLA-B*08:01; [1]) turn out when FIKNKIHLL was run?
Answer: 0.821 nM

Question: What about the Kd (HLA-A*30:01; [1]) of the same sequence?
Answer: 2520 nM

Question: What about the Kd (HLA-A*32:01; [1]) of the same sequence?
Answer: 2810 nM

Question: And the Kd (HLA-B*15:03; [1])?
Answer: 6910 nM

Question: And the Kd (HLA-B*15:01; [1])?
Answer: 97.7 nM

Question: Which Kd (HLA-B*15:03; [1]) does the source give for IKFAAGIII here?
Answer: 16 nM

Question: Which results are given for YTLYKKLSF?
Answer: Kd (HLA-B*08:01; [4]): 16.3 nM; Kd (HLA-A*30:01; [4]): 22.6 nM; Kd (HLA-A*32:01; [4]): 194 nM; Kd (HLA-B*15:03; [4]): 38.2 nM; Kd (HLA-B*15:01; [4]): 14.3 nM

Question: With SQYLSRVSL as the sequence, how does the Kd (HLA-B*15:03; [1]) read?
Answer: 0.235 nM

Question: Which Kd (HLA-B*15:03; [1]) does the source give for EEVNIDNSF here?
Answer: 1200 nM

Question: With NLLCHIYSL as the sequence, how does the Kd (HLA-B*08:01; [1]) read?
Answer: 0.307 nM

Question: What about the Kd (HLA-A*30:01; [1]) of the same sequence?
Answer: 56.3 nM

Question: And the Kd (HLA-A*32:01; [1])?
Answer: 231 nM

Question: What about the Kd (HLA-B*15:03; [1]) of the same sequence?
Answer: 2030 nM

Question: And the Kd (HLA-B*15:01; [1])?
Answer: 1930 nM

Question: How did the Kd (HLA-B*40:01) turn out when YEYVLIGIL was run?
Answer: ≤ 1 nM

Question: What about the Kd (HLA-B*18:01) of the same sequence?
Answer: 4 nM

Question: With IMALIVSIF as the sequence, how does the Kd (HLA-B*15:03; source organism: Vaccinia virus) read?
Answer: 4.53 nM

Question: For KKVIGFVSI, which Kd (HLA-B*15:03; [1]) is on record?
Answer: 7.49 nM

Question: How did the Kd (HLA-A*30:02) turn out when KTSTLIFFV was run?
Answer: 251 nM

Question: What about the Kd (HLA-A*24:02) of the same sequence?
Answer: 6600 nM

Question: And the Kd (HLA-A*02:02)?
Answer: 1.38 nM

Question: And the Kd (HLA-A*02:06)?
Answer: 1.76 nM

Question: And the Kd (HLA-A*26:01)?
Answer: 4810 nM

Question: And the Kd (HLA-A*68:02)?
Answer: 47.2 nM

Question: And the Kd (HLA-A*29:02)?
Answer: 2650 nM

Question: And the Kd (HLA-B*35:01; [1])?
Answer: ≥ 35800 nM

Question: And the Kd (HLA-A*02:03)?
Answer: 156 nM

Question: What about the Kd (HLA-B*54:01; [1]) of the same sequence?
Answer: 13800 nM

Question: And the Kd (HLA-B*07:02; [1])?
Answer: ≥ 30500 nM

Question: And the Kd (HLA-B*51:01; [1])?
Answer: 11400 nM

Question: What about the Kd (HLA-A*23:01) of the same sequence?
Answer: 9120 nM

Question: What about the Kd (HLA-B*53:01; [1]) of the same sequence?
Answer: 15000 nM

Question: And the Kd (HLA-A*01:01)?
Answer: 1880 nM

Question: How did the Kd (HLA-B*08:01; [1]) turn out when SSRRYRCSF was run?
Answer: 11.5 nM

Question: And the Kd (HLA-B*15:03; [1])?
Answer: 54.5 nM

Question: What about the Kd (HLA-B*15:01; [1]) of the same sequence?
Answer: 682 nM

Question: RLYSEGLSI was tested. Which Kd (HLA-B*15:03; [1]) did it give?
Answer: 31.9 nM

Question: What about the Kd (HLA-B*15:01; [1]) of the same sequence?
Answer: 4.53 nM

Question: Which Kd (HLA-B*35:01; [3]) does the source give for FPSIFSTEV here?
Answer: 97.7 nM

Question: And the Kd (HLA-B*54:01; [3])?
Answer: 4.42 nM

Question: And the Kd (HLA-B*07:02; [3])?
Answer: 244 nM

Question: What about the Kd (HLA-B*51:01; [3]) of the same sequence?
Answer: 330 nM

Question: And the Kd (HLA-B*53:01; [3])?
Answer: 57.3 nM

Question: What does the source list for MPTYKHLIMF?
Answer: Kd (HLA-B*35:01; [1]): 20.6 nM; Kd (HLA-B*54:01; [1]): 23.6 nM; Kd (HLA-B*07:02; [1]): 21.8 nM; Kd (HLA-B*51:01; [1]): 843 nM; Kd (HLA-B*53:01; [1]): 18 nM

Question: Which Kd (HLA-B*35:01; [2]) does the source give for MPICMDVRAI here?
Answer: 94.8 nM

Question: And the Kd (HLA-B*54:01; [2])?
Answer: 3.96 nM

Question: What about the Kd (HLA-B*07:02; [2]) of the same sequence?
Answer: 300 nM

Question: And the Kd (HLA-B*51:01; [2])?
Answer: 2.24 nM

Question: And the Kd (HLA-B*53:01; [2])?
Answer: 5.98 nM

Source: the Immune Epitope Database (IEDB)
